± gives the uncertainty stated by the source.

First the molecules themselves.
B1: Formin-binding protein 4, residues 200 to 261; numbered along this chain, Q8N3X1 (parent)
chain: SGWQYDTQCSLAGVGIEMGDWQEVWDENTGCYYYWNTQTNEVTWELPQYLATQVQGLQHYQP

In the data set the parent is B1. The data set is described as follows: abundance fitness (aPCA) (normalised: wild type 0, dead -1); higher = more abundant; growth selection in yeast, the domain comes from the species named. The following applies: Homo sapiens.
As to SGWQYDTQCSLAGVGIEMGDWQEVWDENTGCYYYWNTQTNEVTWELPQYLAIQVQGLQHYQP, the abundance fitness is 0.029 ± 0.12.
Consider SGWQYDTQCSLAGVGIEMGDWQEVWDENTGCYYYWNTQTNEVTWELPQYLAQQVQGLQHYQP, for which the abundance fitness was -0.202 ± 0.091.
On to SGWQYDTQCSLAGVGIEMGDWQEVWDENTGCYYYWNTQTNEVTWELPQYLAPQVQGLQHYQP, for which the abundance fitness is -0.486 ± 0.12.
On to SGWQYDTQCSLAGVGIEMGDWQEVWDENTGCYYYWNTQTNEVTWELPQYLANQVQGLQHYQP, for which the abundance fitness was -0.028 ± 0.15.
To SGWQYDTQCSLAGVGIEMGDWQEVWDENTGCYYYWNTQTNEVTWELPQYLAMQVQGLQHYQP belongs -0.218 ± 0.11; to SGWQYDTQCSLAGVGIEMGDWQEVWDENTGCYYYWNTQTNEVTWELPQYLADQVQGLQHYQP, 0.301 ± 0.11; to SGWQYDTQCSLAGVGIEMGDWQEVWDENTGCYYYWNTQTNEVTWELPQYLASQVQGLQHYQP, 0.008 ± 0.067.
With SGWQYDTQCSLAGVGIEMGDWQEVWDENTGCYYYWNTQTNEVTWELPQYLALQVQGLQHYQP, the abundance fitness is -0.064 ± 0.057.
As for SGWQYDTQCSLAGVGIEMGDWQEVWDENTGCYYYWNTQTNEVTWELPQYLAYQVQGLQHYQP, the abundance fitness was -0.248 ± 0.13.
Turning to SGWQYDTQCSLAGVGIEMGDWQEVWDENTGCYYYWNTQTNEVTWELPQYLARQVQGLQHYQP, the abundance fitness was determined as 0.034 ± 0.062.
As to SGWQYDTQCSLAGVGIEMGDWQEVWDENTGCYYYWNTQTNEVTWELPQYLAAQVQGLQHYQP, the abundance fitness was determined as 0.085 ± 0.071.
On to SGWQYDTQCSLAGVGIEMGDWQEVWDENTGCYYYWNTQTNEVTWELPQYLAKQVQGLQHYQP, for which the abundance fitness came to 0.335 ± 0.11.
With SGWQYDTQCSLAGVGIEMGDWQEVWDENTGCYYYWNTQTNEVTWELPQYLAWQVQGLQHYQP, the abundance fitness is -0.295 ± 0.097.
On to SGWQYDTQCSLAGVGIEMGDWQEVWDENTGCYYYWNTQTNEVTWELPQYLAVQVQGLQHYQP, for which the abundance fitness was -0.011 ± 0.067.
For SGWQYDTQCSLAGVGIEMGDWQEVWDENTGCYYYWNTQTNEVTWELPQYLAGQVQGLQHYQP, the abundance fitness came out at 0.038 ± 0.074.
As to SGWQYDTQCSLAGVGIEMGDWQEVWDENTGCYYYWNTQTNEVTWELPQYLATQVQHLQHYQP, the abundance fitness is -0.186 ± 0.17.
Turning to SGWQYDTQCSLAGVGIEMGDWQEVWDENTGCYYYWNTQTNEVTWELPQYLATQVQDLQHYQP, the abundance fitness is 0.177 ± 0.091.
As for SGWQYDTQCSLAGVGIEMGDWQEVWDENTGCYYYWNTQTNEVTWELPQYLATQVQNLQHYQP, the abundance fitness came to 0.051 ± 0.12.
For the variant SGWQYDTQCSLAGVGIEMGDWQEVWDENTGCYYYWNTQTNEVTWELPQYLATQVQYLQHYQP, the abundance fitness was -0.401 ± 0.15.
SGWQYDTQCSLAGVGIEMGDWQEVWDENTGCYYYWNTQTNEVTWELPQYLATQVQVLQHYQP: the abundance fitness was -0.219 ± 0.078.
As to SGWQYDTQCSLAGVGIEMGDWQEVWDENTGCYYYWNTQTNEVTWELPQYLATQVQLLQHYQP, the abundance fitness was -0.209 ± 0.058.
For SGWQYDTQCSLAGVGIEMGDWQEVWDENTGCYYYWNTQTNEVTWELPQYLATQVQCLQHYQP, the abundance fitness is -0.255 ± 0.13.
For the variant SGWQYDTQCSLAGVGIEMGDWQEVWDENTGCYYYWNTQTNEVTWELPQYLATQVQTLQHYQP, the abundance fitness amounted to 0.015 ± 0.088.
To SGWQYDTQCSLAGVGIEMGDWQEVWDENTGCYYYWNTQTNEVTWELPQYLATQVQMLQHYQP belongs -0.367 ± 0.11; to SGWQYDTQCSLAGVGIEMGDWQEVWDENTGCYYYWNTQTNEVTWELPQYLATQVQELQHYQP, 0.224 ± 0.086; to SGWQYDTQCSLAGVGIEMGDWQEVWDENTGCYYYWNTQTNEVTWELPQYLATQVQSLQHYQP, -0.031 ± 0.06.
For SGWQYDTQCSLAGVGIEMGDWQEVWDENTGCYYYWNTQTNEVTWELPQYLATQVQWLQHYQP, the abundance fitness is -0.16 ± 0.11.
Under SGWQYDTQCSLAGVGIEMGDWQEVWDENTGCYYYWNTQTNEVTWELPQYLATQVQQLQHYQP stands 0.076 ± 0.09; under SGWQYDTQCSLAGVGIEMGDWQEVWDENTGCYYYWNTQTNEVTWELPQYLATQVQRLQHYQP, 0.004 ± 0.066; under SGWQYDTQCSLAGVGIEMGDWQEVWDENTGCYYYWNTQTNEVTWELPQYLATQVQFLQHYQP, -0.464 ± 0.12.
Take SGWQYDTQCSLAGVGIEMGDWQEVWDENTGCYYYWNTQTNEVTWELPQYLATQVQILQHYQP: the abundance fitness is -0.425 ± 0.13.
To SGWQYDTQCSLAGVGIEMGDWQEVWDENTGCYYYWNTQTNEVTWELPQYLATQVQPLQHYQP belongs -0.178 ± 0.089.
Take SGWQYDTQCSLAGVGIEMGDWQEVWDENTGCYYYWNTQTNEVTWELPQYLATQVQALQHYQP: the abundance fitness is -0.018 ± 0.078.
For the variant SGWQYDTQCSLAGVGIEMGDWQEVWDENTGCYYYWNTQTNEVTWELPQYLATFVQGLQHYQP, the abundance fitness is -0.621 ± 0.13.
On to SGWQYDTQCSLAGVGIEMGDWQEVWDENTGCYYYWNTQTNEVTWELPQYLATVVQGLQHYQP, for which the abundance fitness was -0.679 ± 0.099.
SGWQYDTQCSLAGVGIEMGDWQEVWDENTGCYYYWNTQTNEVTWELPQYLATHVQGLQHYQP: the abundance fitness is -0.68 ± 0.17.
On to SGWQYDTQCSLAGVGIEMGDWQEVWDENTGCYYYWNTQTNEVTWELPQYLATLVQGLQHYQP, for which the abundance fitness was -0.457 ± 0.073.
For the variant SGWQYDTQCSLAGVGIEMGDWQEVWDENTGCYYYWNTQTNEVTWELPQYLATDVQGLQHYQP, the abundance fitness is -0.314 ± 0.16.
To SGWQYDTQCSLAGVGIEMGDWQEVWDENTGCYYYWNTQTNEVTWELPQYLATMVQGLQHYQP belongs -0.624 ± 0.14.
For the variant SGWQYDTQCSLAGVGIEMGDWQEVWDENTGCYYYWNTQTNEVTWELPQYLATWVQGLQHYQP, the abundance fitness is -0.634 ± 0.22.
To SGWQYDTQCSLAGVGIEMGDWQEVWDENTGCYYYWNTQTNEVTWELPQYLATPVQGLQHYQP belongs -0.663 ± 0.15.
With SGWQYDTQCSLAGVGIEMGDWQEVWDENTGCYYYWNTQTNEVTWELPQYLATAVQGLQHYQP, the abundance fitness was -0.407 ± 0.11.
To SGWQYDTQCSLAGVGIEMGDWQEVWDENTGCYYYWNTQTNEVTWELPQYLATEVQGLQHYQP belongs -0.588 ± 0.14.

The record behind these values is the Human Domainome abundance scans (Beltran et al. 2025).
